Reference: the supplement of paper PMC9170038

Legend:
MS2 coat protein [1] = test: apparent KD of MS2 coat protein, switch OFF state (with FMN for OFF switches, without FMN for ON switches); designed switch direction (-1 OFF switch, 1 ON switch): 1; higher = weaker reporter binding; details: FMN input: 0 or 200 uM; Eterna round: R93 (includes R88 designs)
How it was run: (§1)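 Normalised binding curves from single clusters were fitted, and the median fit for each design is given as apparent KD. The clusters held designed RNA switches transcribed on-chip from Illumina sequencing clusters. These were titrated with SNAP-549-labelled MS2 coat protein (twofold steps from 0.7 or 1.5 nM to 3 µM, 0.8–1.5 h to 10–20 min per step) in 100 mM Tris-HCl pH 7.5, 80 mM KCl, 4 mM MgCl2, without or with constant ligand.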

MS2 coat protein [2] = test: apparent KD of MS2 coat protein, switch ON state; designed switch direction (-1 OFF switch, 1 ON switch): 1; higher = weaker reporter binding; details: FMN input: 0 or 200 uM; Eterna round: R93 (includes R88 designs)
How it was run: as §1

CAUCAACAUGAGGAUCACCCAUGUCAUUGAUGUCAAGGAUAUGGGAGACAUAAAAUUCUUCUAGAAGGUGAAAGAU [Mainuson]
apparent KD of MS2 coat protein (MS2 coat protein [1]): 0.176 µM | apparent KD of MS2 coat protein (MS2 coat protein [2]): 0.636 µM

CGAAAGGAGAGAGAGGAUAUCCAAAGGAAAACAUGAGGAUCACCCAUGUAGAAGGUAGGAGAUUGGGAGAAGGCUCAAGAAAGAG [salish99-ss2-144]
apparent KD of MS2 coat protein (MS2 coat protein [1]): 0.0275 µM | apparent KD of MS2 coat protein (MS2 coat protein [2]): 0.023 µM

CGAAGACAUGAGGAUCACCCAUGUGGGAUUAUGGGAGGAUAUACAAAGACGAGAGUCAGAGUAGAAGGCCUAGGAG [salish99-ss1-126(!)]
apparent KD of MS2 coat protein (MS2 coat protein [1]): 0.0471 µM | apparent KD of MS2 coat protein (MS2 coat protein [2]): 0.0287 µM

CGAGAACAUGAGGAUCACCCAUGUAAUGAAUGGUCAGGAUAUGGAGAUAGAUGACAAGCGCCAGAAGGGACAUCAG [JR_SS001_Sub1001]
apparent KD of MS2 coat protein (MS2 coat protein [1]): 0.0539 µM | apparent KD of MS2 coat protein (MS2 coat protein [2]): 0.0429 µM

CGCGAACAUGAGGAUCACCCAUGUAAAUCGCAUGUAGGAUAUGGGAAACACAUUAAGAUCCCAGAAGGGCGGAAAA [Anquve]
apparent KD of MS2 coat protein (MS2 coat protein [1]): 0.0312 µM | apparent KD of MS2 coat protein (MS2 coat protein [2]): 0.0413 µM

CGCGAACAUGAGGAUCACCCAUGUGAAAAACAUAGAGGAUAUGUCGCAUGCGUGUAAAAGACAGAAGGCUAUCGCG [Normal (21/22)]
apparent KD of MS2 coat protein (MS2 coat protein [1]): 0.0725 µM | apparent KD of MS2 coat protein (MS2 coat protein [2]): 0.0228 µM

CGGAGACAUGAGGAUCACCCAUGUGAGAAGAGGCGAGGAUAUCGAAAGAAAGAAGAGAAACGAGAAGGCGCGAGCA [salish99-SS1-068]
apparent KD of MS2 coat protein (MS2 coat protein [1]): 0.0244 µM | apparent KD of MS2 coat protein (MS2 coat protein [2]): 0.0229 µM

CGGAGACAUGAGGAUCACCCAUGUGAGAAGAGGCGAGGAUAUCGAAAGAAAGAAGAGAAACGAGAAGGCGCGAGCG [salish99-SS1-076]
apparent KD of MS2 coat protein (MS2 coat protein [1]): 0.0424 µM | apparent KD of MS2 coat protein (MS2 coat protein [2]): 0.0328 µM

CGGAGACAUGAGGAUCACCCAUGUGAGAAGAGGCGAGGAUAUCGAAAGAAAGAAGAGAAACGAGAAGGCGCGAGGC [salish99-SS1-079]
apparent KD of MS2 coat protein (MS2 coat protein [1]): 0.0412 µM | apparent KD of MS2 coat protein (MS2 coat protein [2]): 0.0211 µM

CGGGAAGAGAGAGAGGAUAUCCAAAGGAAAACAUGAGGAUCACCCAUGUAGAAGGUAGGAAAUUGGGAGAAGGCUCAAGAGAGAG [salish99-ss2-134]
apparent KD of MS2 coat protein (MS2 coat protein [1]): 0.0337 µM | apparent KD of MS2 coat protein (MS2 coat protein [2]): 0.0372 µM

CUGGAACAUGAGGAUCACCCAUGUCACAGAAACUGAGGAUAUGGGCGCUAACAAGCAUGACCAGAAGGCAGACACG [Mamaes]
apparent KD of MS2 coat protein (MS2 coat protein [1]): 0.0272 µM | apparent KD of MS2 coat protein (MS2 coat protein [2]): 0.018 µM

CUGGACCUAGGAUAGGAUAUGUGAAUAAUUACAUGAGGAUCACCCAUGUCCAUUUAUAUGGGAACAUAGAAGGGUUCUGGUUAAG [Mat - Same state - Malcolm Mod - D146]
apparent KD of MS2 coat protein (MS2 coat protein [1]): 0.0661 µM | apparent KD of MS2 coat protein (MS2 coat protein [2]): 0.0422 µM

GAAAAACAUGAGGAUCACCCAUGUAAGAUAAACACAGGAUAUGCGAAAAGAAAGAAAGAAGCAGAAGGGUGAAGAA [Mat - Same State 1 - Tesla mod - 40]
apparent KD of MS2 coat protein (MS2 coat protein [1]): 0.0337 µM | apparent KD of MS2 coat protein (MS2 coat protein [2]): 0.0123 µM

GAAAAACAUGAGGAUCACCCAUGUAAGAUAAACACAGGAUAUGCGAAAAUAAAUAAAUAAGCAGAAGGGUGAAGAA [Mat - Same State 1 - Tesla mod - 74]
apparent KD of MS2 coat protein (MS2 coat protein [1]): 0.0352 µM | apparent KD of MS2 coat protein (MS2 coat protein [2]): 0.0115 µM

GAAAAACAUGAGGAUCACCCAUGUAGAAAUAUGGAAGGAUAUACGAAGACGAAAGUCAAAGUAGAAGGUCUAAAAG [Garnet 96]
apparent KD of MS2 coat protein (MS2 coat protein [1]): 0.0195 µM | apparent KD of MS2 coat protein (MS2 coat protein [2]): 0.017 µM

GAAAAACAUGAGGAUCACCCAUGUAGAAAUAUGGGAGGAUAUACGAAGACGAAAGUCAAAGUAGAAGGCCUAAAGA [Mat - Same State 1 - Eli mod - D103]
apparent KD of MS2 coat protein (MS2 coat protein [1]): 0.0704 µM | apparent KD of MS2 coat protein (MS2 coat protein [2]): 0.0265 µM

GAAAAACAUGAGGAUCACCCAUGUAGAAAUAUGGGAGGAUAUACUAAGACGAAAGUCGAAGUAGAAGGCCUAAAAG [Same State 1.4f (Mat - Mod of Eli - )]
apparent KD of MS2 coat protein (MS2 coat protein [1]): 0.0542 µM | apparent KD of MS2 coat protein (MS2 coat protein [2]): 0.0217 µM

GAAAAACAUGAGGAUCACCCAUGUAGAAAUAUGGGAGGAUAUUCAAAGACGAAAGUCAAAGAAGAAGGCCUAAAAG [Mat - Same State 1 - Eli mod - 36]
apparent KD of MS2 coat protein (MS2 coat protein [1]): 0.113 µM | apparent KD of MS2 coat protein (MS2 coat protein [2]): 0.0291 µM

GAAAAACAUGAGGAUCACCCAUGUGAAAAUAUGGGAGGAUAUACAAAGACGAAAGUCAAAGUAGAAGGCCUAAGAG [Garnet 34]
apparent KD of MS2 coat protein (MS2 coat protein [1]): 0.072 µM | apparent KD of MS2 coat protein (MS2 coat protein [2]): 0.0221 µM

GAAAAACAUGAGGAUCACCCAUGUGACAACAUGGGAGGAUAUACAUGGACGAUAGUCAAAGUAGAAGGCCUAAAAG [Garnet 63]
apparent KD of MS2 coat protein (MS2 coat protein [1]): 0.0244 µM | apparent KD of MS2 coat protein (MS2 coat protein [2]): 0.142 µM

GAAAAACAUGAGGAUCACCCAUGUGAGAAUAUGGAAGGAUAUACAAAGACGAGAGUCAAAGUAGAAGGUCUAAAAG [Mat - Same State 1 - Eli mod - D21]
apparent KD of MS2 coat protein (MS2 coat protein [1]): 0.0317 µM | apparent KD of MS2 coat protein (MS2 coat protein [2]): 0.0221 µM

GAAAAACAUGAGGAUCACCCAUGUGAGAAUAUGGGAGGAUAUACAAAGACGAAAGUCAAAGUAGAAGGCCUAAAAG [Mat - Same State 1 - Eli mod - D6]
apparent KD of MS2 coat protein (MS2 coat protein [1]): 0.0945 µM | apparent KD of MS2 coat protein (MS2 coat protein [2]): 0.0276 µM
